B1: SNAI2 (protein, UniProt O43623 1-268, looked up)
Zinc finger protein SNAI2: MPRSFLVKKHFNASKKPNYSELDTHTVIISPYLYESYSMPVIPQPEILSSGAYSPITVWTTAAPFHAQLPNGLSPLSGYSSSLGRVSPPPPSDTSSKDHSGSESPISDEEERLQSKLSDPHAIEAEKFQCNLCNKTYSTFSGLAKHKQLHCDAQSRKSFSCKYCDKEYVSLGALKMHIRTHTLPCVCKICGKAFSRPWLLQGHIRTHTGEKPFSCPHCNRAFADRSNLRAHLQTHSDVKKYQCKNCSKTFSRMSLLHKHEESGCCVAH
B2: BCL11B (protein, UniProt Q9C0K0 1-894, looked up)
B-cell lymphoma/leukemia 11B: MSRRKQGNPQHLSQRELITPEADHVEAAILEEDEGLEIEEPSGLGLMVGGPDPDLLTCGQCQMNFPLGDILVFIEHKRKQCGGSLGACYDKALDKDSPPPSSRSELRKVSEPVEIGIQVTPDEDDHLLSPTKGICPKQENIAGPCRPAQLPAVAPIAASSHPHSSVITSPLRALGALPPCLPLPCCSARPVSGDGTQGEGQTEAPFGCQCQLSGKDEPSSYICTTCKQPFNSAWFLLQHAQNTHGFRIYLEPGPASSSLTPRLTIPPPLGPEAVAQSPLMNFLGDSNPFNLLRMTGPILRDHPGFGEGRLPGTPPLFSPPPRHHLDPHRLSAEEMGLVAQHPSAFDRVMRLNPMAIDSPAMDFSRRLRELAGNSSTPPPVSPGRGNPMHRLLNPFQPSPKSPFLSTPPLPPMPPGGTPPPQPPAKSKSCEFCGKTFKFQSNLIVHRRSHTGEKPYKCQLCDHACSQASKLKRHMKTHMHKAGSLAGRSDDGLSAASSPEPGTSELAGEGLKAADGDFRHHESDPSLGHEPEEEDEEEEEEEEELLLENESRPESSFSMDSELSRNRENGGGGVPGVPGAGGGAAKALADEKALVLGKVMENVGLGALPQYGELLADKQKRGAFLKRAAGGGDAGDDDDAGGCGDAGAGGAVNGRGGGFAPGTEPFPGLFPRKPAPLPSPGLNSAAKRIKVEKDLELPPAALIPSENVYSQWLVGYAASRHFMKDPFLGFTDARQSPFATSSEHSSENGSLRFSTPPGDLLDGGLSGRSGTASGGSTPHLGGPGPGRPSSKEGRRSDTCEYCGKVFKNCSNLTVHRRSHTGERPYKCELCNYACAQSSKLTRHMKTHGQIGKEVYRCDICQMPFSVYSTLEKHMKKWHGEHLLTNDVKIEQAERS
B3: SND1 (protein, UniProt Q7KZF4 2-910, looked up)
Staphylococcal nuclease …: ASSAQSGGSSGGPAVPTVQRGIIKMVLSGCAIIVRGQPRGGPPPERQINLSNIRAGNLARRAAATQPDAKDTPDEPWAFPAREFLRKKLIGKEVCFTIENKTPQGREYGMIYLGKDTNGENIAESLVAEGLATRREGMRANNPEQNRLSECEEQAKAAKKGMWSEGNGSHTIRDLKYTIENPRHFVDSHHQKPVNAIIEHVRDGSVVRALLLPDYYLVTVMLSGIKCPTFRREADGSETPEPFAAEAKFFTESRLLQRDVQIILESCHNQNILGTILHPNGNITELLLKEGFARCVDWSIAVYTRGAEKLRAAERFAKERRLRIWRDYVAPTANLDQKDKQFVAKVMQVLNADAIVVKLNSGDYKTIHLSSIRPPRLEGENTQDKNKKLRPLYDIPYMFEAREFLRKKLIGKKVNVTVDYIRPASPATETVPAFSERTCATVTIGGINIAEALVSKGLATVIRYRQDDDQRSSHYDELLAAEARAIKNGKGLHSKKEVPIHRVADISGDTQKAKQFLPFLQRAGRSEAVVEYVFSGSRLKLYLPKETCLITFLLAGIECPRGARNLPGLVQEGEPFSEEATLFTKELVLQREVEVEVESMDKAGNFIGWLHIDGANLSVLLVEHALSKVHFTAERSSYYKSLLSAEEAAKQKKEKVWAHYEEQPVEEVMPVLEEKERSASYKPVFVTEITDDLHFYVQDVETGTQLEKLMENMRNDIASHPPVEGSYAPRRGEFCIAKFVDGEWYRARVEKVESPAKIHVFYIDYGNREVLPSTRLGTLSPAFSTRVLPAQATEYAFAFIQVPQDDDARTDAVDSVVRDIQNTQCLLNVEHLSAGCPHVTLQFADSKGDVGLGLVKEGLVMVEVRKEKQFQKVITEYLNAQESAKSARLNLWRYGDFRADDADEFGYSR
B4: SNW1 (protein, UniProt Q13573 2-536, looked up)
SNW domain-containing protein …: ALTSFLPAPTQLSQDQLEAEEKARSQRSRQTSLVSSRREPPPYGYRKGWIPRLLEDFGDGGAFPEIHVAQYPLDMGRKKKMSNALAIQVDSEGKIKYDAIARQGQSKDKVIYSKYTDLVPKEVMNADDPDLQRPDEEAIKEITEKTRVALEKSVSQKVAAAMPVRAADKLAPAQYIRYTPSQQGVAFNSGAKQRVIRMVEMQKDPMEPPRFKINKKIPRGPPSPPAPVMHSPSRKMTVKEQQEWKIPPCISNWKNAKGYTIPLDKRLAADGRGLQTVHINENFAKLAEALYIADRKAREAVEMRAQVERKMAQKEKEKHEEKLREMAQKARERRAGIKTHVEKEDGEARERDEIRHDRRKERQHDRNLSRAAPDKRSKLQRNENRDISEVIALGVPNPRTSNEVQYDQRLFNQSKGMDSGFAGGEDEIYNVYDQAWRGGKDMAQSIYRPSKNLDKDMYGDDLEARIKTNRFVPDKEFSGSDRRQRGREGPVQFEEDPFGLDKFLEEAKQHGGSKRPSDSSRPKEHEHEGKKRRKE
B5: SNAPC4 (protein, UniProt Q5SXM2 1-1469, looked up)
snRNA-activating protein …: MDVDAEREKITQEIKELERILDPGSSGSHVEISESSLESDSEADSLPSEDLDPADPPISEEERWGEASNDEDDPKDKTLPEDPETCLQLNMVYQEVIQEKLAEANLLLAQNREQQEELMRDLAGSKGTKVKDGKSLPPSTYMGHFMKPYFKDKVTGVGPPANEDTREKAAQGIKAFEELLVTKWKNWEKALLRKSVVSDRLQRLLQPKLLKLEYLHQKQSKVSSELERQALEKQGREAEKEIQDINQLPEEALLGNRLDSHDWEKISNINFEGSRSAEEIRKFWQNSEHPSINKQEWSREEEERLQAIAAAHGHLEWQKIAEELGTSRSAFQCLQKFQQHNKALKRKEWTEEEDRMLTQLVQEMRVGSHIPYRRIVYYMEGRDSMQLIYRWTKSLDPGLKKGYWAPEEDAKLLQAVAKYGEQDWFKIREEVPGRSDAQCRDRYLRRLHFSLKKGRWNLKEEEQLIELIEKYGVGHWAKIASELPHRSGSQCLSKWKIMMGKKQGLRRRRRRARHSVRWSSTSSSGSSSGSSGGSSSSSSSSSEEDEPEQAQAGEGDRALLSPQYMVPDMDLWVPARQSTSQPWRGGAGAWLGGPAASLSPPKGSSASQGGSKEASTTAAAPGEETSPVQVPARAHGPVPRSAQASHSADTRPAGAEKQALEGGRRLLTVPVETVLRVLRANTAARSCTQKEQLRQPPLPTSSPGVSSGDSVARSHVQWLRHRATQSGQRRWRHALHRRLLNRRLLLAVTPWVGDVVVPCTQASQRPAVVQTQADGLREQLQQARLASTPVFTLFTQLFHIDTAGCLEVVRERKALPPRLPQAGARDPPVHLLQASSSAQSTPGHLFPNVPAQEASKSASHKGSRRLASSRVERTLPQASLLASTGPRPKPKTVSELLQEKRLQEARAREATRGPVVLPSQLLVSSSVILQPPLPHTPHGRPAPGPTVLNVPLSGPGAPAAAKPGTSGSWQEAGTSAKDKRLSTMQALPLAPVFSEAEGTAPAASQAPALGPGQISVSCPESGLGQSQAPAASRKQGLPEAPPFLPAAPSPTPLPVQPLSLTHIGGPHVATSVPLPVTWVLTAQGLLPVPVPAVVSLPRPAGTPGPAGLLATLLPPLTETRAAQGPRAPALSSSWQPPANMNREPEPSCRTDTPAPPTHALSQSPAEADGSVAFVPGEAQVAREIPEPRTSSHADPPEAEPPWSGRLPAFGGVIPATEPRGTPGSPSGTQEPRGPLGLEKLPLRQPGPEKGALDLEKPPLPQPGPEKGALDLGLLSQEGEAATQQWLGGQRGVRVPLLGSRLPYQPPALCSLRALSGLLLHKKALEHKATSLVVGGEAERPAGALQASLGLVRGQLQDNPAYLLLRARFLAAFTLPALLATLAPQGVRTTLSVPSRVGSESEDEDLLSELELADRDGQPGCTTATCPIQGAPDSGKCSASSCLDTSNDPDDLDVLRTRHARHTRKRRRLV
B6: SMYD1 (protein, UniProt Q8NB12 1-490, looked up)
Histone-lysine …: MTIGRMENVEVFTAEGKGRGLKATKEFWAADIIFAERAYSAVVFDSLVNFVCHTCFKRQEKLHRCGQCKFAHYCDRTCQKDAWLNHKNECSAIKRYGKVPNENIRLAARIMWRVEREGTGLTEGCLVSVDDLQNHVEHFGEEEQKDLRVDVDTFLQYWPPQSQQFSMQYISHIFGVINCNGFTLSDQRGLQAVGVGIFPNLGLVNHDCWPNCTVIFNNGNHEAVKSMFHTQMRIELRALGKISEGEELTVSYIDFLNVSEERKRQLKKQYYFDCTCEHCQKKLKDDLFLGVKDNPKPSQEVVKEMIQFSKDTLEKIDKARSEGLYHEVVKLCRECLEKQEPVFADTNIYMLRMLSIVSEVLSYLQAFEEASFYARRMVDGYMKLYHPNNAQLGMAVMRAGLTNWHAGNIEVGHGMICKAYAILLVTHGPSHPITKDLEAMRVQTEMELRMFRQNEFMYYKMREAALNNQPMQVMAEPSNEPSPALFHKKQ
B7: SMARCAD1 (protein, UniProt Q9H4L7 1-1026, looked up)
SWI/SNF-related …: MNLFNLDRFRFEKRNKIEEAPEATPQPSQPGPSSPISLSAEEENAEGEVSRANTPDSDITEKTEDSSVPETPDNERKASISYFKNQRGIQYIDLSSDSEDVVSPNCSNTVQEKTFNKDTVIIVSEPSEDEESQGLPTMARRNDDISELEDLSELEDLKDAKLQTLKELFPQRSDNDLLKLIESTSTMDGAIAAALLMFGDAGGGPRKRKLSSSSEPYEEDEFNDDQSIKKTRLDHGEESNESAESSSNWEKQESIVLKLQKEFPNFDKQELREVLKEHEWMYTEALESLKVFAEDQDMQYVSQSEVPNGKEVSSRSQNYPKNATKTKLKQKFSMKAQNGFNKKRKKNVFNPKRVVEDSEYDSGSDVGSSLDEDYSSGEEVMEDGYKGKILHFLQDASIGELTLIPQCSQKKAQKITELRPFNSWEALFTKMSKTNGLSEDLIWHCKTLIQERDVVIRLMNKCEDISNKLTKQVTMLTGNGGGWNIEQPSILNQSLSLKPYQKVGLNWLALVHKHGLNGILADEMGLGKTIQAIAFLAYLYQEGNNGPHLIVVPASTIDNWLREVNLWCPTLKVLCYYGSQEERKQIRFNIHSRYEDYNVIVTTYNCAISSSDDRSLFRRLKLNYAIFDEGHMLKNMGSIRYQHLMTINANNRLLLTGTPVQNNLLELMSLLNFVMPHMFSSSTSEIRRMFSSKTKSADEQSIYEKERIAHAKQIIKPFILRRVKEEVLKQLPPKKDRIELCAMSEKQEQLYLGLFNRLKKSINNLEKNTEMCNVMMQLRKMANHPLLHRQYYTAEKLKEMSQLMLKEPTHCEANPDLIFEDMEVMTDFELHVLCKQYRHINNFQLDMDLILDSGKFRVLGCILSELKQKGDRVVLFSQFTMMLDILEVLLKHHQHRYLRLDGKTQISERIHLIDEFNTDMDIFVFLLSTKAGGLGINLTSANVVILHDIDCNPYNDKQAEDRCHRVGQTKEVLVIKLISQGTIEESMLKINQQKLKLEQDMTTVDEGDEGSMPADIATLLKTSMGL

Test system: HEK293FT cells transfected with TF library
Assay: Screening of TF condensates based on fluorescent puncta
Format: cell-based
Details: Figure 1B numerical data; TF library screen, one value per transcriptional factor
In short: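 HEK293FT cells were reverse-transfected with Flag- or GAL4-tagged TF plasmids (1.6 μg/ml, PEI). After 60 h, cells were cultured 12 h with or without glucose, then fixed and immunostained with anti-Flag or anti-GAL4 and Alexa 488 secondaries. Fluorescent puncta were imaged over fifty random fields per well by high-content imaging.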

| Molecule | Z score of condensed fraction |
| --- | --- |
| B1 | -0.6818 |
| B2 | -0.7987 |
| B3 | 0.9266 |
| B4 | -0.7186 |
| B5 | -0.9989 |
| B6 | -0.4905 |
| B7 | -0.654 |

From paper PMC11574045, “A cofactor-induced repressive type of transcription factor condensation can be induced by synthetic peptides to suppress tumorigenesis” (The EMBO Journal, 2024)
